The EC50 is the midpoint of the concentration-response curve.

This passage reports EC50 results from patent US6416758.

In the experiment the target is VEGF:sFlk-1 complex (VEGF associated with its receptor) (human; mouse) (UniProt P15692). Nature of the experiment: capture ELISA: antibody coated on wells, VEGF complexed with biotinylated sFlk-1 titrated, peroxidase-avidin; concentration giving 50% maximal binding; extrapolated value (*).
Sequence of VEGF:sFlk-1 complex (VEGF associated with its receptor) (human; mouse) (P15692 other isoform, or with tags, fused parts or gaps limits assumed, chain 1 of 2): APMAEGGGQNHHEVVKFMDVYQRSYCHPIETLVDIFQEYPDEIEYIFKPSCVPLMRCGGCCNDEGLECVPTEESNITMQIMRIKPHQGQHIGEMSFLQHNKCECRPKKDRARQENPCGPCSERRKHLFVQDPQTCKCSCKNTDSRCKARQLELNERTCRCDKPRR
Sequence of VEGF:sFlk-1 complex (VEGF associated with its receptor) (human; mouse) (P35918 20-762 limits assumed, chain 2 of 2, further chain): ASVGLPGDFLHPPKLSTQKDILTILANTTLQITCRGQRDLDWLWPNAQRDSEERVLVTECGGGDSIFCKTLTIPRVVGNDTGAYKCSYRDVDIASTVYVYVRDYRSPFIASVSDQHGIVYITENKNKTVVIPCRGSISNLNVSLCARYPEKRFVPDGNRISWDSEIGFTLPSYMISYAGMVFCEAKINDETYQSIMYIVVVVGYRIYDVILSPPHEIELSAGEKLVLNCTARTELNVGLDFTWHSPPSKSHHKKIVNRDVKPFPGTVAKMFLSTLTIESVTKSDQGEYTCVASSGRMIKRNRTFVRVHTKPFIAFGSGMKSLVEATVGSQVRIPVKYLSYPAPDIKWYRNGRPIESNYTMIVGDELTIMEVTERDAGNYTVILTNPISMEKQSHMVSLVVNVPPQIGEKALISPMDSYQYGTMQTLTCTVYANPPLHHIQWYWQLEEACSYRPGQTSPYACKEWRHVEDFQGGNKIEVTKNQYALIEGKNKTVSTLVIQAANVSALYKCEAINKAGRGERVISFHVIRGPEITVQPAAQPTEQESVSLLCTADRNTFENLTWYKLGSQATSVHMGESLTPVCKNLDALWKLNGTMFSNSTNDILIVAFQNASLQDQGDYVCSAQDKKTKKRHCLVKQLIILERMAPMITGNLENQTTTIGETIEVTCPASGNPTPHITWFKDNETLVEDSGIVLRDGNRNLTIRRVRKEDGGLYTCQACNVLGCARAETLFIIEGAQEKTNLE

Sequence of A4.6.1 (mouse anti-human VEGF monoclonal antibody, Genentech) (VH): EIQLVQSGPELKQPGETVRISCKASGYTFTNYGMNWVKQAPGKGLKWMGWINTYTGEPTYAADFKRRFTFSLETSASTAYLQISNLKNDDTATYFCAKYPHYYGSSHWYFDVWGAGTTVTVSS
Sequence of A4.6.1 (mouse anti-human VEGF monoclonal antibody, Genentech) (VL): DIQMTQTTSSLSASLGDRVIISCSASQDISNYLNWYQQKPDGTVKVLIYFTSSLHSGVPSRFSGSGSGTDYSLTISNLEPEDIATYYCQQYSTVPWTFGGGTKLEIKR

On to “A4.6.1 (mouse anti-human VEGF monoclonal antibody, Genentech)”, for which the EC50 is 0.5 µM.
